According to PMC1888729, “Control of Pre-mRNA Splicing by the General Splicing Factors PUF60 and U2AF65”:

Tests used:
[1] = biological target: T1, PUF60 (short isoform PUF60S, HEK-293E-derived) (Homo sapiens, UniProt Q9UHX1-2 1-542); experiment: EMSA; PUF60 alone; 25 mM Tris pH 7.5, 25 mM NaCl, 1 mM EDTA, 0.1 mg/ml tRNA, 0.5 mg/ml BSA, ~0.2 nM RNA, 60 min room temperature (6% native gel in cold room); footprints same plus 1 U/ml RNasin, 30 min, then 2.6 mg/ml tRNA with RNase 5 min; details: protein: recombinant; label: 32P; single strand
T1 sequence (Q9UHX1 other isoform, or with tags, fused parts or gaps): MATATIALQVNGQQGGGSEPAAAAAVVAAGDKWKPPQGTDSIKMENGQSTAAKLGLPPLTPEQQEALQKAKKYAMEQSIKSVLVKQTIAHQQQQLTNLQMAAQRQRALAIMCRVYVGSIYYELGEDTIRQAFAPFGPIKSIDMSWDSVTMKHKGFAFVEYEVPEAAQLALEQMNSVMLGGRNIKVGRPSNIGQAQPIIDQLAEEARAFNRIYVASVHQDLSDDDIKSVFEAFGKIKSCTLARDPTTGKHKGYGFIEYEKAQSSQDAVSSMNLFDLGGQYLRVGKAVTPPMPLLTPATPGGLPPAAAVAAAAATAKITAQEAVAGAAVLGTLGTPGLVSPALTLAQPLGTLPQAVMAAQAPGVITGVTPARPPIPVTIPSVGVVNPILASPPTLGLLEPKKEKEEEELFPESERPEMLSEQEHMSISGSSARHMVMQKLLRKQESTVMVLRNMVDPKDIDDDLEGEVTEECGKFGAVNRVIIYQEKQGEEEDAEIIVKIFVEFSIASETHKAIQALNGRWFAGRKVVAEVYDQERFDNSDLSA

[2] = biological target: T1, PUF60 (short isoform PUF60S, …); experiment: EMSA; with U2AF65/35; PUF60 binding enhanced, U2AF:RNA complex decreases; 25 mM Tris pH 7.5, 25 mM NaCl, 1 mM EDTA, 0.1 mg/ml tRNA, 0.5 mg/ml BSA, ~0.2 nM RNA, 60 min room temperature (6% native gel in cold room); footprints same plus 1 U/ml RNasin, 30 min, then 2.6 mg/ml tRNA with RNase 5 min; details: protein: recombinant; label: 32P; single strand
U2AF65 (in U2AF65/35 …) = biological target: U2AF65 (in U2AF65/35 heterodimer);U2AF35 (in U2AF65/35 heterodimer) (Homo sapiens;Homo sapiens, UniProt P26368;Q01081 1-475;1-240, |); experiment: EMSA; U2AF65/35 alone; 25 mM Tris pH 7.5, 25 mM NaCl, 1 mM EDTA, 0.1 mg/ml tRNA, 0.5 mg/ml BSA, ~0.2 nM RNA, 60 min room temperature (6% native gel in cold room); footprints same plus 1 U/ml RNasin, 30 min, then 2.6 mg/ml tRNA with RNase 5 min; details: protein: recombinant;recombinant; tags: ;; copies: 1;1; label: 32P; single strand
Chain of U2AF65 (in U2AF65/35 heterodimer);U2AF35 (in U2AF65/35 heterodimer) (P26368 whole entry, chain 1 of 2): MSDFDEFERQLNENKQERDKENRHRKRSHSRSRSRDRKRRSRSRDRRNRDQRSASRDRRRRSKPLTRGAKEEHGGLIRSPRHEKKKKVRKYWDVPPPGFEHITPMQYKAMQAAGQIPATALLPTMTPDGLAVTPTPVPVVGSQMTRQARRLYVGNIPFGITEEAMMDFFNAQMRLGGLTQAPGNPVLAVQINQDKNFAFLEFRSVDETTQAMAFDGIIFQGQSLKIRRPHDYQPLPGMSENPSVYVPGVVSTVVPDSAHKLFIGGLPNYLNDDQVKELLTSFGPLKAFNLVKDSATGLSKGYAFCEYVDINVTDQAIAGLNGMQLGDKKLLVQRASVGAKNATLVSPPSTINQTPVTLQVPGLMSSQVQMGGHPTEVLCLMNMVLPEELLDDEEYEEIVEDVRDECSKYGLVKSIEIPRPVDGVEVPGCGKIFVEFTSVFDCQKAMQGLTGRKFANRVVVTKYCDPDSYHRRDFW
Chain of U2AF65 (in U2AF65/35 heterodimer);U2AF35 (in U2AF65/35 heterodimer) (Q01081 whole entry, chain 2 of 2): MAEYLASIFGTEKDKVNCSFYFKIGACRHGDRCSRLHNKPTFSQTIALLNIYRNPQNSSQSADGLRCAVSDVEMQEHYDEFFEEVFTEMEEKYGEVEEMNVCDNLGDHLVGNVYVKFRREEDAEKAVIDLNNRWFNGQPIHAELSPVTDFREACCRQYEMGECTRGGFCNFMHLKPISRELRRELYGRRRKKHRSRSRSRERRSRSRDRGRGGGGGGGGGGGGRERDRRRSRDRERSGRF

Measured: binding result

UUCGUGCUGACCCUGUCCCUUUUUUUUCCACAGC (ssRNA) [AdML 3' splice-site RNA, 34 nt]
binds: all assays above
